From US20040037775

Assays:
MTX-cIBL conjugate = tested on: T1, MTX-cIBL conjugate
T1 sequence: QTSVSPSKVI

[1] = tested on: T2, MTX-cIBR conjugate (methotrexate-cyclo-Leu Pro Arg Gly Gly Ser Val Leu Val Thr)
T2 sequence: LPRGGSVLVT

dihydrofolate reductase enzyme (DHFR) was tested, and the “Km relative to MTX” value (MTX-cIBL conjugate) was “approximately 4 and 15 fold times less than that of MTX, respectively” and the “Km relative to MTX” value [1] was “approximately 4 and 15 fold times less than that of MTX, respectively”.
